Values quoted from earlier work in PMC7511354.

Molecular target: CYP2C9 (Homo sapiens) (UniProt P11712)
UniProt P11712, sequence (P11712 whole entry): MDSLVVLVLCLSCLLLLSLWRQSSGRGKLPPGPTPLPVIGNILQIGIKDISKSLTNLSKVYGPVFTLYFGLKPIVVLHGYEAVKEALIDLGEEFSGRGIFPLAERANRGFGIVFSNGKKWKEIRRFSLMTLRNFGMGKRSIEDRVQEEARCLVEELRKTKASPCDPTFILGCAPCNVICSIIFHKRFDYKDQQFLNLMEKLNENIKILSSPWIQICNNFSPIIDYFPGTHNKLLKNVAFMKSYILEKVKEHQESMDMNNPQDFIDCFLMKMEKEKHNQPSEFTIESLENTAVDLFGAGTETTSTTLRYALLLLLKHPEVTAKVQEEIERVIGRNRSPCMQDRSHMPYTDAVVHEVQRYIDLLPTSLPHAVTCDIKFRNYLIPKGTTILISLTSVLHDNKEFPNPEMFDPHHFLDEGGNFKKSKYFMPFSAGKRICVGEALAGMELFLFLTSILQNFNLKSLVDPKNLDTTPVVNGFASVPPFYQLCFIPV

cytochrome b5 (from UniProt P00167)
Kd: 794 nM
